Among the data in patent US20250243279A1 (published 2025) are Kd values, retold here.

Among the targets are 1D8; 1E1; 1B11-2; 1D9; 1A2; 1H7; 1B6; 1C8; 1D7.
What all share (assay): Carterra LSA SPR

B1: huMICA (ligand)
chain: EPHSLRYNLTVLSWDGSVQSGFLTEVHLDGQPFLRCDRQKCRAKPQGQWAEDVLGNKTWDRETRDLTGNGKDLRMTLAHIKDQKEGLHSLQEIRVCEIHEDNSTRSSQHFYYDGELFLSQNLETKEWTMPQSSRAQTLAMNVRNFLKEDAMKTKTHYHAMHADCLQELRRYLKSGVVLRRTVPPMVNVTRSEASEGNITVTCRASGFYPWNITLSWRQDGVSLSHDTQQWGDVLPDGNGTYQTWVATRICQGEEQRFTCYMEHSGNHSTHPVPSGKVLVLQSHWQTFHVSAVAAAAIFVIIIFYVRCCKKKTSAAEGPELVSLQVLDQHPVGTSDHRDATQLGFQPLMSDLGSTGSTEGA
Take B1: the Kd in the assay with 1D8 amounted to 46.7 nM; with 1E1, 12.2 nM; with 1B11-2, 2.83 nM; with 1D9, 12.8 nM; in the assay with 1A2, 2.13 nM; with 1H7 it was 75 nM. Moreover, the equilibrium dissociation constant (Kd) with 1B6 came out at 5.85 nM; with 1C8, 20.6 nM; with 1D7, 0.344 nM.

B2: huMICB (ligand)
chain: AEPHSLRYNLMVLSQDGSVQSGFLAEGHLDGQPFLRYDRQKRRAKPQGQWAENVLGAKTWDTETEDLTENGQDLRRTLTHIKDQKGGLHSLQEIRVCEIHEDSSTRGSRHFYYDGELFLSQNLETQESTVPQSSRAQTLAMNVTNFWKEDAMKTKTHYRAMQADCLQKLQRYLKSGVAIRRTVPPMVNVTCSEVSEGNITVTCRASSFYPRNITLTWRQDGVSLSHNTQQWGDVLPDGNGTYQTWVATRIRQGEEQRFTCYMEHSGNHGTHPVPSGKALVLQSQRTDFPYVSAAMPCFVIIIILCVPCCKKKTSAAEGPELVSLQVLDQHPVGTGDHRDAAQLGFQPLMSATGSTGSTEGT
As for B2, the Kd with 1D8 was determined as 4.5 nM; with 1E1, 2.23 nM; with 1B11-2, 1.11 nM; with 1D9, 0.453 nM; with 1A2, 0.181 nM; in the assay with 1H7, 254 nM. The values for the Kd with 1B6, in the assay with 1C8 and with 1D7 were 1.05 nM, 7.72 nM and 1.47 nM, respectively.

A word on the Kd: it is the equilibrium constant for the complex coming apart. High values mean lower affinity, low ones higher affinity.
